Patent US20200095296A1, “USE OF PEPTIDES AS BIOMARKERS IN THE DIAGNOSIS, CONFIRMATION AND TREATMENT OF A NEUROLOGICAL DISORDER AND TCR AND/OR HLA IMMUNOPROFILING IN NEURODEGENERATIVE DISEASE” (THE TRUSTEES OF COLUMBIA UNIVERSITY IN THE CITY OF NEW YORK, priority 2017, published 2020)

Key:
Assay in all cases: competition with radiolabeled peptide, purified HLA
HLA DRB3*01:01 (human) = biological target: HLA DRB3*01:01 (human)
HLA DRB1*03:01 (human) = biological target: HLA DRB1*03:01 (human)
HLA DRB1*11:01 (human) = biological target: HLA DRB1*11:01 (human)
HLA DRB1*04:05 (human) = biological target: HLA DRB1*04:05 (human)
HLA DRB1*09:01 (human) = biological target: HLA DRB1*09:01 (human)
HLA DRB1*04:01 (human) = biological target: HLA DRB1*04:01 (human)

| IC50 (HLA DRB3*01:01 (human)) [µM] | IC50 (HLA DRB1*04:05 (human)) [µM] | IC50 (HLA DRB1*04:01 (human)) [µM] | other results | Substance |
| --- | --- | --- | --- | --- |
| 5.67 | – | – | IC50 (HLA DRB1*03:01 (human)): 6.96 µM; IC50 (HLA DRB1*11:01 (human)): 1.57 µM | alpha-syn peptide aa116…aa130 |
| – | 3.6 | – | – | alpha-syn peptide aa116…aa130 phosphorylated at S129 |
| – | 1.94 | – | IC50 (HLA DRB1*09:01 (human)): 4.6 µM | alpha-syn peptide aa121…aa135 |
| 9.18 | – | 9.13 | – | alpha-syn peptide aa121…aa135 phosphorylated at S129 |
| – | – | 4.96 | – | alpha-syn peptide aa126…aa140 phosphorylated at S129 |
